Drawing on US20110207796A1, “ALPHA-SYNUCLEIN KINASE” (Elan Pharma International Limited, priority 2008, published 2011), this text covers percent phospho-synuclein by ELISA, PLK2, synuclein and synphilin co-transfected into HEK cells and percentage of phospho-synuclein by ELISA, cDNA transfected into PEAK-Syn cells for two molecules.

For experiment [1], the target named is Polo like kinase 2 (PLK2) (human). As to the kind of experiment: cell-based or functional assay.
Experiment [2] addresses human alpha-synuclein (wild-type, recombinant) (human). As to the kind of experiment: cell-based or functional assay.

B1: synphilin (protein, UniProt Q9Y6H5 1-919, looked up)
chain: MEAPEYLDLDEIDFSDDISYSVTSLKTIPELCRRCDTQNEDRSVSSSSWNCGISTLITNTQKPTGIADVYSKFRPVKRVSPLKHQPETLENNESDDQKNQKVVEYQKGGESDLGPQPQELGPGDGVGGPPGKSSEPSTSLGELEHYDLDMDEILDVPYIKSSQQLASFTKVTSEKRILGLCTTINGLSGKACSTGSSESSSSNMAPFCVLSPVKSPHLRKASAVIHDQHKLSTEETEISPPLVKCGSAYEPENQSKDFLNKTFSDPHGRKVEKTTPDCQLRAFHLQSSAAESKPEEQVSGLNRTSSQGPEERSEYLKKVKSILNIVKEGQISLLPHLAADNLDKIHDENGNNLLHIAASQGHAECLQHLTSLMGEDCLNERNTEKLTPAGLAIKNGQLECVRWMVSETEAIAELSCSKDFPSLIHYAGCYGQEKILLWLLQFMQEQGISLDEVDQDGNSAVHVASQHGYLGCIQTLVEYGANVTMQNHAGEKPSQSAERQGHTLCSRYLVVVETCMSLASQVVKLTKQLKEQTVERVTLQNQLQQFLEAQKSEGKSLPSSPSSPSSPASRKSQWKSPDADDDSVAKSKPGVQEGIQVLGSLSASSRARPKAKDEDSDKILRQLLGKEISENVCTQEKLSLEFQDAQASSRNSKKIPLEKRELKLARLRQLMQRSLSESDTDSNNSEDPKTTPVRKADRPRPQPIVESVESMDSAESLHLMIKKHTLASGGRRFPFSIKASKSLDGHSPSPTSESSEPDLESQYPGSGSIPPNQPSGDPQQPSPDSTAAQKVATSPKSALKSPSSKRRTSQNLKLRVTFEEPVVQMEQPSLELNGEKDKDKGRTLQRTSTSNESGDQLKRPFGAFRSIMETLSGNQNNNNNYQAANQLKTSTLPLTSLGRKTDAKGNPASSASKGKNKAA
Molecule B1 gave a percent phospho-synuclein by ELISA, PLK2, synuclein and synphilin co-transfected into HEK cells in experiment [1] of 83.3%.

B2: Protein kinase, cGMP-dependent, regulatory, Type I (enzyme, human, UniProt Q13976-2 1-686, looked up)
chain: MGTLRDLQYALQEKIEELRQRDALIDELELELDQKDELIQKLQNELDKYRSVIRPATQQAQKQSASTLQGEPRTKRQAISAEPTAFDIQDLSHVTLPFYPKSPQSKDLIKEAILDNDFMKNLELSQIQEIVDCMYPVEYGKDSCIIKEGDVGSLVYVMEDGKVEVTKEGVKLCTMGPGKVFGELAILYNCTRTATVKTLVNVKLWAIDRQCFQTIMMRTGLIKHTEYMEFLKSVPTFQSLPEEILSKLADVLEETHYENGEYIIRQGARGDTFFIISKGTVNVTREDSPSEDPVFLRTLGKGDWFGEKALQGEDVRTANVIAAEAVTCLVIDRDSFKHLIGGLDDVSNKAYEDAEAKAKYEAEAAFFANLKLSDFNIIDTLGVGGFGRVELVQLKSEESKTFAMKILKKRHIVDTRQQEHIRSEKQIMQGAHSDFIVRLYRTFKDSKYLYMLMEACLGGELWTILRDRGSFEDSTTRFYTACVVEAFAYLHSKGIIYRDLKPENLILDHRGYAKLVDFGFAKKIGFGKKTWTFCGTPEYVAPEIILNKGHDISADYWSLGILMYELLTGSPPFSGPDPMKTYNIILRGIDMIEFPKKIAKNAANLIKKLCRDNPSERLGNLKNGVKDIQKHKWFEGFNWEGLRKGTLTPPIIPSVASPTDTSNFDSFPEDNDEPPPDDNSGWDIDF
B2: in experiment [2], the percentage of phospho-synuclein by ELISA, cDNA transfected into PEAK-Syn cells was determined as 8.9%.
